Each block holds one binder with its values, some of them ahead of it. Starred links: 1 amine or outer side, 2 acyl side, 3 side chain; linkers in the order of their positions; H or OH if unused. Positions of bridges follow the written chain, without caps; N, C: chain ends. Non-standard residues stand in square brackets, D forms with d. Primed or numbered codes have the meaning given here. PyrS2″ = (S)-3-amino-1-((pent-4-en-1-yloxy)carbonyl)pyrrolidine-3-carboxylic acid (stapling residue), C=CCCCOC(=O)N1CC[C@@](N[*:1])(C(=O)[*:2])C1; B5(4) = 2,2-bis(4-pentenyl)glycine = 2-amino-2-(pent-4-en-1-yl)hept-6-enoic acid (stitching residue), C=CCCCC(CCCC=C)(N[*:1])C(=O)[*:2]; B5(5) = 2,2-bis(4-pentenyl)glycine, 2-amino-2-(pent-4-en-1-yl)hept-6-enoic acid (stitching residue), C=CCCCC(CCCC=C)(N[*:1])C(=O)[*:2]; TfeGA = (S)-2-amino-3-((carboxymethyl)(2,2,2-trifluoroethyl)amino)propanoic acid, O=C([C@H](CN(CC(=O)[*:3])CC(F)(F)F)N[*:1])[*:2]; PyrS2 = (S)-3-amino-1-((pent-4-en-1-yloxy)carbonyl)pyrrolidine-3-carboxylic acid, C=CCCCOC(=O)N1CC[C@@](N[*:1])(C(=O)[*:2])C1; Bta = N[C@@H](Cc1csc2ccccc12)C(=O)O; αAllylPro = C=CC[C@@]1(C(=O)O)CCCN1; tBuAla = CC(C)(C)C[C@H](N)C(=O)O; 3Thi = N[C@@H](Cc1ccsc1)C(=O)O; Cha = N[C@@H](CC1CCCCC1)C(=O)O; hSer = N[C@@H](CCO)C(=O)O
Experiments:
[1] = biological target: T1, B-cat-Halo (beta-catenin HaloTag NanoBRET construct expressed in HEK293 cells) (UniProt P35222 1-781); experiment: cell-based or functional assay
T1 sequence (looked up): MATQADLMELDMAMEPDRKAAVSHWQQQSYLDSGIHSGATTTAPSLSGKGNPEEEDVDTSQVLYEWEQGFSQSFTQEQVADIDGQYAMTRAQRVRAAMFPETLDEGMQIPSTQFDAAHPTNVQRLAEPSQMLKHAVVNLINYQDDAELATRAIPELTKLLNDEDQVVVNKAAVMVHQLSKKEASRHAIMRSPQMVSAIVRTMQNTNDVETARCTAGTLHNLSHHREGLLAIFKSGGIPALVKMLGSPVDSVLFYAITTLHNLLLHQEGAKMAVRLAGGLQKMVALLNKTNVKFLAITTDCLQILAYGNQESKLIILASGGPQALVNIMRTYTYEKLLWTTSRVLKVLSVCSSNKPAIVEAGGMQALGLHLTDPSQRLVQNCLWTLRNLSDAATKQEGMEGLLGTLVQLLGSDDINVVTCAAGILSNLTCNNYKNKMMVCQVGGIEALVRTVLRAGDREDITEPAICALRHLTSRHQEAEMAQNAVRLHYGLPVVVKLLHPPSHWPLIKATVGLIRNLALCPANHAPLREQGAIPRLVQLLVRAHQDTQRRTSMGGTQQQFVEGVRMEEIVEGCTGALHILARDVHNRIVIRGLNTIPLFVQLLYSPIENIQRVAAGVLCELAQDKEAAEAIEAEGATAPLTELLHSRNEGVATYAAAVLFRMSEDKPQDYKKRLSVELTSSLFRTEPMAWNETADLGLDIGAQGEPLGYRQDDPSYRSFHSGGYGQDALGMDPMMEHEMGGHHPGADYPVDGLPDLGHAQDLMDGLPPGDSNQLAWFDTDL

[2] = biological target: T2, full-length beta-Catenin (Uniprot ID P35222) (Homo sapiens (Human), UniProt P35222 2-781); experiment: fluorescence polarization competition: full-length beta-catenin + 5FAM-TCF4(10-53) probe, peptide titrated
T2 construct: The AlphaScreen assay used a Histidine (Nickel Chelate) detection kit, so a His tag is likely, but no tag is described; also called B-Catenin; bCat
T2 sequence: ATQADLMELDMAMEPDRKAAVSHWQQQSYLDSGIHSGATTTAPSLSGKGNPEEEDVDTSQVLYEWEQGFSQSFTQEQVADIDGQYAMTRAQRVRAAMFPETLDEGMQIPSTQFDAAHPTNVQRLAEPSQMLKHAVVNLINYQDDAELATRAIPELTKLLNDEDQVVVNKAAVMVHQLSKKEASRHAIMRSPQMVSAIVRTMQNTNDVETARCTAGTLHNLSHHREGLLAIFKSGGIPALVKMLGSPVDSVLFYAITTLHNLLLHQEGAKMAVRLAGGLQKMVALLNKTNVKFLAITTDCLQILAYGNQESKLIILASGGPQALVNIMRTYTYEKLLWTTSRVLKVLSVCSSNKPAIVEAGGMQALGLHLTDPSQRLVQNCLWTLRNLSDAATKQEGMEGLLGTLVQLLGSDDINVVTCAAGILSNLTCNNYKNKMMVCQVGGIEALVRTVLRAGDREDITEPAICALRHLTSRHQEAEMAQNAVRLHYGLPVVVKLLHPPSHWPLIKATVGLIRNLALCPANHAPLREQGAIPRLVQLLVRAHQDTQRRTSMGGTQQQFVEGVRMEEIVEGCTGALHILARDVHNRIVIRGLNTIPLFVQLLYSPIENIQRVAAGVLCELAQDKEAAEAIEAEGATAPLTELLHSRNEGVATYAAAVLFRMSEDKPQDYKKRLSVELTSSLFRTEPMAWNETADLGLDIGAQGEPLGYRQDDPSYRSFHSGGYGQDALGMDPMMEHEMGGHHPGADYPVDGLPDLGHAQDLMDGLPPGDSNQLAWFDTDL
Summary of the method: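 Incubate 60 minutes at 20° C. away from light, then read polarization in duplicate. Fit to 1:1 binding with hill slope.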

[3] = biological target: T2, full-length beta-Catenin (Uniprot ID …); experiment: AlphaScreen competition: full-length beta-catenin + biotin-TCF4(10-53) probe, peptide titrated
Summary of the method: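 Titrated peptide was preincubated 15 minutes at 20° C, then donor and acceptor beads were added for 60 minutes at 20° C protected from light. Reads were done in duplicate, and data were fitted to a 1:1 binding model with Hill slope; concentrations are final.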

B-cat-Halo = biological target: T3, B-cat-Halo (UniProt P35222 1-781); experiment: cell-based or functional assay
T3 sequence (looked up): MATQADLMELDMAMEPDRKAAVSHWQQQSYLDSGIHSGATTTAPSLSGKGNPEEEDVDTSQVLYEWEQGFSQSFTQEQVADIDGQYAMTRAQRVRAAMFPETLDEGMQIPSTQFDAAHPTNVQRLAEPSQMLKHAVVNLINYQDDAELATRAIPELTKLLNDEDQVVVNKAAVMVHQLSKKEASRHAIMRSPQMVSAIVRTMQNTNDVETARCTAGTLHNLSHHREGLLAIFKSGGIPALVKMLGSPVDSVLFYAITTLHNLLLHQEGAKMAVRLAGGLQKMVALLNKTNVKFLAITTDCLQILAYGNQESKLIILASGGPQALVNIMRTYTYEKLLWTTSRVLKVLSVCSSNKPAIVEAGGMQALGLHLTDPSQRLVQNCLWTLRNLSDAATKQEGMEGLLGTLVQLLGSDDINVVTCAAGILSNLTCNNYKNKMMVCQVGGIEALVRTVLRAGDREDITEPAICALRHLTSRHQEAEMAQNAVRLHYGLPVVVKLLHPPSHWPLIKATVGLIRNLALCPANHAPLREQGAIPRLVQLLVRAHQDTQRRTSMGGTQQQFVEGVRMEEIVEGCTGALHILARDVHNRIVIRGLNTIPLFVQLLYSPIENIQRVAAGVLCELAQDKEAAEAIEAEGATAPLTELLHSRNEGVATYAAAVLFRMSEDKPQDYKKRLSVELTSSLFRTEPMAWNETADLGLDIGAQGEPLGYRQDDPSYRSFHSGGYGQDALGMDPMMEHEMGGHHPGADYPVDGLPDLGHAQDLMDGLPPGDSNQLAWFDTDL

NanoBRET Abs IC50 [1]: > 20 µM
Binder: AzAc-[αAllylPro]D[tBuAla][B5(4)]D[TfeGA]AAFN[PyrS2][3Thi][Bta]Q-NH2 (staple 1-4, 4-11; not fully specified) [I-1054]

EC50 [2]: 5 µM
EC50 [3]: 1.96 µM
B1: I-254 (peptide)
peptide: XDAXDDAAFVXFWQ
modifications: not fully specified; N-terminal Ac; C-terminal NH2; PL3 at 1, B5 at 4, S8 at 11 (staples 1-4 and 4-11 by olefin metathesis); 4F3MeF at 12
notes: Stapled peptide composition; also called Ac-PL3-Asp-Ala-B5-Asp-Asp-Ala-Ala-Phe-Val-S8-4F3MeF-Trp-Gln-NH2

NanoBRET Abs IC50 (B-cat-Halo): > 20 µM
Binder: Ac-[αAllylPro]N[Cha][B5(5)]DQ[hSer]AFL[PyrS2″]F[Bta]K-NH2 (staple 1-4, 4-11) [I-2419]
